Reference: publication doi:10.1101/2022.11.23.517371

Molecular target: nicotinate-nucleotide pyrophosphorylase (NMnPP) (Saccharomyces cerevisiae S288c) (UniProt P43619)
Assay: negative-stain TEM

Substance: nicotinate-nucleotide pyrophosphorylase (NMnPP) (from UniProt P43619 1-295) (enzyme)
- stoichiometry N: 6
